Experimental data reported in patent publication US12454572B2, “Methods of treating anemia in myelodysplastic syndromes” (Dana-Farber Cancer Institute, Inc., priority 2021, dated 2025).
“Also recorded” adds a separate entry of the source. Like-named read-outs stand apart in the source and are kept apart here.

Legend:
human CD34+ stem cells = details: cited from earlier work
MDS patients = details: cited from earlier work
wild-type TH22 cells = experiment: secreted IL-22 from in vitro polarized wild-type TH22 cells; format: cell-based, mouse; details: for secreted IL-22: pifithrin-α, p-nitro 1 μM, Nutlin-3 100 nM
Method: Single-cell suspensions of mouse spleens were prepared by pressing tissue through a 70-μm cell strainer followed by red blood cell lysis using PharmLyse. Total splenic CD4^+ T cells were isolated using CD4 T cell isolation kit (Miltenyi Biotec). Enriched CD4^+ T cells were then incubated with fluorochrome-conjugated antibodies to CD4, CD8, CD25, CD62L, and CD44 to purify naïve CD4^+ T cells using fluorescence activated cell sorting (FACS). In the presence of 1 μg/mL plate-bound anti-CD3ε and soluble 1 μg/mL anti-CD28, T cell polarizations were carried out in IMDM supplemented with 10% FBS, 2 mM L-glutamine, […] penicillin-streptomycin, HEPES (pH 7.2-7.6), non-essential amino acids, 100 μM β-mercaptoethanol (BME), and sodium pyruvate as follows—TH1 (20 ng/mL IL-12, 10 μg/mL anti-IL-4), TH2 (20 ng/mL IL-4, 10 μg/mL anti-IFN-γ), TH17 (30 ng/mL IL-6, 20 ng/mL IL-23, 20 ng/mL IL-1β, 10 μg/mL anti-IL-4, 10 μg/mL anti-IFN-γ), Treg cells (1 ng/mL TGF-β, 10 μg/mL anti-IL-4, 10 μg/mL anti-IFN-γ), and TH22 (30 ng/mL IL-6, 20 ng/mL IL-23, 20 ng/mL IL-1β, 10 μg/mL anti-IL-4, 10 μg/mL anti-IFN-γ, 400 nM FICZ). Pifithrin-α, p-Nitro and Nutlin-3a were purchased from Santa Cruz Biotechnology and Tocris Biosciences, respectively.
IL-22 in human samples was quantified using either Human IL-22 Quantikine ELISA Kit (D2200, R&D Systems) or SMCTM Human IL-22 High Sensitivity Immunoassay Kit (EMD Millipore, 03-0162-00) according to manufacturers' instructions. The SMC assay was read on a SMC Pro (EMD Millipore) instrument. The lower limit of quantification (LLOQ) of this immunoassay is 0.1 pg/mL. IL-22 in mouse samples was quantified using ELISA MAX™ Deluxe Set Mouse IL-22 (BioLegend, 436304). The LLOQ of this immunoassay is 3.9 pg/mL. S100A8 in human samples was quantified using Human S100A8 DuoSet ELISA (DY4570, R&D Systems).

Lin- BM cells = experiment: in vitro erythropoiesis assay (erythroid differentiation of Lin- BM cells); format: cell-based, mouse; details: for p53 expression: culture treated with rIL-22 vs PBS
Method: Whole BM cells were labeled with biotin-conjugated lineage antibodies (cocktail of anti-CD3ε, anti-CD11b, anti-CD45R/B220, anti-Gr1, anti-CD5, and anti-TER-119) (BD Pharmingen) and purified using anti-biotin beads and negative selection on the AutoMACS Pro (Miltenyi). Purified cells were then seeded in fibronectin-coated (2 μg/cm^2) tissue-culture treated polystyrene wells (CORNING® BIOCOAT™ Cellware) at a cell density of 10^5/mL. Erythroid differentiation was carried out according to modified published protocols. The erythropoietic medium was IMDM supplemented with erythropoietin at 10 U/mL, 10 ng/mL stem cell factor SCF, PeproTech), 10 μM Dexamethasone (Sigma-Aldrich), 15% FBS, 1% detoxified BSA (StemCell Technologies), 200 μg/mL holotransferrin (Sigma-Aldrich), […] human insulin (Sigma-Aldrich), 2 mM L-glutamine, 0.1 mM β-mercaptoethanol, and penicillin-streptomycin. After 48 h, the medium was replaced by IMDM medium containing 20% FBS, 2 mM L-glutamine, 0.1 mM β-mercaptoethanol, and penicillin-streptomycin. 50% of the culture media was replaced after 48 h and cell density was maintained at 0.5×10^6/mL. Total culture period for the assay was 6 days. Recombinant mouse IL-22 (PeproTech/Cell Signaling) was used where indicated.

IL-22 [1] = molecular target: T1, IL-22 (Mus musculus, UniProt Q9JJY9); experiment: anti-IL-22 antibody in naive, non-anemic wt C57BL/6J mice; format: in vivo; parameters: endogenous in cells; host or cells: living mice (wt C57BL/6J; Riok2f/+Vav1cre and Riok2+/+Vav1cre); details: healthy, anti-IL-22 vs isotype
T1 sequence (Q9JJY9 34-179): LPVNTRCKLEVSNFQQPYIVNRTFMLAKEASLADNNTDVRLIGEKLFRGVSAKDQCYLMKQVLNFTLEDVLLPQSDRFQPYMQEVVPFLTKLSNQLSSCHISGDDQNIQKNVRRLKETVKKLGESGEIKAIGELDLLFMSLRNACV
Method: (§1) Monoclonal anti-IL-22 (Clone IL22JOP) blocking antibody and isotype control IgG2a (Clone eBR2a) were purchased from Thermo Fisher Scientific. Mice were administered anti-IL-22 (50 μg/mouse) or isotype intraperitoneally every 48 h until the conclusion of the experiment. For recombinant IL-22 treatment, mice were injected with recombinant IL-22 (500 ng/mouse; PeproTech) intraperitoneally every 24 h until the conclusion of the experiment.
(§2) Mice were bled via the submandibular facial vein to collect blood in EDTA-coated tubes (BD MICROTAINER™ Capillary Blood Collector, BD 365974). Complete blood counts were obtained using the HemaVet CBC Analyzer (Drew Scientific) or Advia 120 (Siemens Inc.,) instruments.
(§3) Monoclonal anti-IL-22 (Clone IL22JOP) blocking antibody and isotype control IgG2aκ (Clone eBR2a) were purchased from Thermo Fisher Scientific. Mice were administered anti-IL-22 (50 μg/mouse) or isotype intraperitoneally every 48 h until the conclusion of the experiment. For recombinant IL-22 treatment, mice were injected with recombinant IL-22 (500 ng/mouse; PeproTech) intraperitoneally every 24 h until the conclusion of the experiment. Mice were administered these reagents at least five times before inducing PhZ-mediated anemia.

IL-22 [2] = molecular target: T1, IL-22; details: cited from earlier work
IL-22 [3] = molecular target: T1, IL-22; experiment: IL-22 neutralization with anti-IL-22 antibody in mice undergoing PhZ-induced stress erythropoiesis; format: in vivo; parameters: endogenous in cells; host or cells: living mice (wt C57BL/6J; Riok2f/+Vav1cre and Riok2+/+Vav1cre); details: for frequency of apoptotic erythroid progenitors/precursors: viable BM cells
Method: (§4) Phenylhydrazine (PhZ) was purchased from Sigma and injected intraperitoneally on 2 consecutive days (days 0 and 1) at a dose of 25 mg/kg. Peripheral blood was collected 3-4 days before the start of treatment and at day 4, 7 and 11. PhZ treatment experiments were carried out in 8-16 week-old mice.
as §1, §2
as §4, with “at the” for “at a”, “25 mg/kg (sublethal model) or 35 mg/kg (lethal model).” for “25 mg/kg.”, “4, 7,” for “4, 7”, “in 8-12 week old” for “in 8-16 week-old”
as §3

Il22ra1f/fEporcre mice = experiment: recombinant IL-22 administration to Il22ra1f/fEporcre mice subsequently treated with PhZ; format: in vivo, mouse; details: mice lacking the IL-22 receptor only on erythroid cells
Method: as §4, with “at the” for “at a”, “25 mg/kg (sublethal model) or 35 mg/kg (lethal model).” for “25 mg/kg.”, “4, 7,” for “4, 7”, “in 8-12 week old” for “in 8-16 week-old”
as §3

wild-type C57BL/6J mice = experiment: recombinant IL-22 administration to wt C57BL/6J mice subsequently treated with PhZ; format: in vivo, mouse; details: for apoptosis of erythroid progenitors/precursors: in vivo
Method: as §4, §1, §2
as §4, with “at the” for “at a”, “25 mg/kg (sublethal model) or 35 mg/kg (lethal model).” for “25 mg/kg.”, “4, 7,” for “4, 7”, “in 8-12 week old” for “in 8-16 week-old”
as §3

[4] = Riok2 sufficient (Riok2+/+Vav1cre) mice, PhZ-induced anemia, vs isotype
[5] = wt C57BL/6J mice undergoing PhZ-induced anemia, vs isotype

In the case of `CC(C)n1cnc2c(NCCc3ccc(O)cc3)nc(-c3csc4ccccc34)nc21` [Stemregenin 1], the “increase in erythroid colonies” value (human CD34+ stem cells; SR1-pretreated CD34+ cells vs untreated cells) is given as 129 fold, the “pluripotency of human CD34+ stem cells” value (human CD34+ stem cells) is given as “maintain” and the “ex vivo expansion of human HSCs” value (human CD34+ stem cells; highest fold expansion seen in the erythroid lineage) is given as “promote”.

For `Nc1cccc2c1CN(C1CCC(=O)NC1=O)C2=O` (centres unmarked) [lenalidomide], the extension of survival (MDS patients; HR-MDS group) is listed as 4-6 months and the extension of survival (MDS patients; LR-MDS patients) is listed as 14-17 months.

For `COc1ccc(C2=N[C@@H](c3ccc(Cl)cc3)[C@@H](c3ccc(Cl)cc3)N2C(=O)N2CCNC(=O)C2)c(OC(C)C)c1` [nutlin-3], the cell viability (wild-type TH22 cells) was “did not decrease” and the “secreted IL-22” value (wild-type TH22 cells) was “increased”.

For `N=c1sc2c(n1CC(=O)c1ccc([N+](=O)[O-])cc1)CCCC2` [pifithrin-α, p-nitro], the “secreted IL-22” value (wild-type TH22 cells) was “decreased”, the cell viability (wild-type TH22 cells; viable cells by flow cytometry) was “did not decrease” and the “apoptosis induced by Riok2 haploinsufficiency” value (Lin- BM cells; IL-22-free assay, pifithrin-α, p-nitro 1 μM, Lin- BM cells from Riok2f/+Vav1cre mice) was “inhibited”.

For “anti-IL-22 (Clone IL22JOP): Monoclonal anti-IL-22 blocking antibody purchased from Thermo Fisher Scientific; used in Examples 2-16”, the HCT (IL-22 [1]) was “did not differ”, the Hb (IL-22 [1]) was “did not differ” and the “PB RBCs” value (IL-22 [1]) was “did not differ”. For the same molecule, the “neutralization of IL-22” value (IL-22 [2]) was “effectively neutralize”, the “PB RBCs” value (IL-22 [3]; Riok2f/+Vav1cre mice, PhZ-induced anemia, anti-IL-22 50 μg/mouse i.p. every 48 h vs isotype) was “anti-anemic effect; also recorded: increase” and the HCT (IL-22 [3]; Riok2f/+Vav1cre mice, PhZ-induced anemia, vs isotype) was “anti-anemic effect; also recorded: increase”. For the same molecule, the “frequency of apoptotic erythroid progenitors/precursors” value (IL-22 [3]; Riok2f/+Vav1cre mice, PhZ) was “reduced”, the anemia (IL-22 [3]; Riok2 haploinsufficient (Riok2f/+Vav1cre) mice, vs isotype) was “partially reversed; also recorded: alleviated” and the phenylhydrazine-induced anemia (IL-22 [3]; Riok2 sufficient (Riok2+/+Vav1cre) mice) was “reversed”. The HCT (IL-22 [3]; [4]) was “anti-anemic effect; also recorded: increase”, the “PB RBCs” value (IL-22 [3]; [4]) was “anti-anemic effect; also recorded: increase” and the “frequency of apoptotic erythroid progenitors/precursors” value (IL-22 [3]; Riok2 sufficient mice, PhZ) was “reduced”. The anemia (IL-22 [3]; wild-type mice undergoing PhZ-induced stress erythropoiesis) was “alleviated”, the HCT (IL-22 [3]; [5]) was “significantly increased” and the Hb (IL-22 [3]; [5]) was “significantly increased”. For the same molecule, the “PB RBCs” value (IL-22 [3]; [5]) was “increases; also recorded: significantly increased; also recorded: faster” and the “frequency of RIII and RIV erythroid precursors in the BM” value (IL-22 [3]; wt C57BL/6J mice, PhZ, vs isotype) was “increased”.

For etanercept, the “efficacy in MDS patients” value (MDS patients; human, in vivo) is listed as “ineffective”.

B1: rIL-22: recombinant IL-22 (PeproTech / Cell Signaling) (protein, UniProt Q9JJY9 34-179, looked up)
Interleukin-22: T1 sequence (Q9JJY9 34-179)
With B1 the phenylhydrazine-induced anemia (Il22ra1f/fEporcre mice) was “failed to exacerbate”, the “BM erythroid progenitor/precursor cells (frequency and number)” value (wild-type C57BL/6J mice; 7 days after PhZ, vs PBS) was “decreased” and the “PB RBCs” value (wild-type C57BL/6J mice; rIL-22 500 ng/mouse i.p. every 24 h, then PhZ, vs PBS) was “decreased”. The BM reticulocytes (wild-type C57BL/6J mice; rIL-22 i.p., PhZ) was “increase”, the PB reticulocytes (wild-type C57BL/6J mice; rIL-22 i.p., PhZ) was “increase” and the “apoptosis of erythroid progenitors/precursors” value (wild-type C57BL/6J mice; rIL-22 i.p., PhZ) was “increased; also recorded: induced”. The “apoptosis of erythroid progenitors/precursors” value (wild-type C57BL/6J mice; rIL-22 i.p., PhZ, listed as recombinant IL-22) was “increase”, the HCT (wild-type C57BL/6J mice; rIL-22 i.p., then PhZ, vs PBS) was “decreased” and the Hb (wild-type C57BL/6J mice; rIL-22 i.p., then PhZ, vs PBS) was “decreased”. For the same molecule, the “PhZ-induced (stress-induced) anemia” value (wild-type C57BL/6J mice; wt mice) was “exacerbates”, the p53 expression (Lin- BM cells) was “upregulation” and the p53 expression (Lin- BM cells; listed as recombinant IL-22) was “induction”. The terminal erythropoiesis (Lin- BM cells; recombinant IL-22, dose response) was “dose-dependently decreased”.
